B1: IMCAS-364抗体 (全抗IgG1) (antibody, V domains shown)
VH: QVQLQESGGGVVQPGRSLRLSCAASGFTFSRYGMHWVRQAPGKGLEWVAVIWYDGSNKYYADSVKGRFTISRDNSKNTLYLQMNSLRADDTAVYYCAKQEGTYCSGGSCYSGLDYWGQGTLVTVSS
VL: not shown
notes: also called 金标抗体 (胶体金标记)
B2: IMCAS-123抗体 (全抗IgG1) (antibody, V domains shown)
VH: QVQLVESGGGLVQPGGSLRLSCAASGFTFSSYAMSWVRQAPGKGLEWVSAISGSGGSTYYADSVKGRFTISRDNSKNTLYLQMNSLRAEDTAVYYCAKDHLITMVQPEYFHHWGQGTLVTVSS
VL: DIQMTQSPSSVSASVGDSVTITCRASQGISRWLAWYQQRPGKAPKLLIYAAGNLETGVPSRFSGSGSGTDFTLTISDLQAEDFATYYCQQADSFPLTFGGGTKVDIKR
notes: also called T1线抗体

Molecular target: SARS-CoV-2 Prototype RBD蛋白 (野生型新型冠状病毒刺突蛋白受体结合域段RBD蛋白) (SARS-CoV-2, UniProt P0DTC2 319-541)
Assay: SPR (Biacore 8K)

Binder | Kd [nM]
B1 | 1.04
B2 | 0.18
